In US7566535B2, “Enhanced oligonucleotide-mediated nucleic acid sequence alteration” (University of Delaware, priority 2002, dated 2009):
In the oligonucleotide strings, read from the 5' end, every base follows the letter of its sugar. An asterisk marks phosphorothioate; unmarked linkages are phosphodiester. Other units and linkages are bracketed, terminal groups are in braces. A string of capitals states the bases alone. d = 2'-deoxy (DNA)

Columns and labels:
[1] = test system: pAURHYG(rep)eGFP; assay: Correction of pAURHYG(rep)eGFP in yeast LSY678 with or without hydroxyurea; settings: 5 μg oligo (1.62 μg Hyg10)
[2] = test system: pAURHYG(rep)eGFP; assay: In vivo correction of episomal pAURHYG(rep)eGFP in yeast, hygromycin-resistant colonies; settings: for Average colony count on hygromycin plates / hygromycin-resistant colonies per aureobasidin-resistant colony: wild-type LSY678; for Colonies on Hygromycin / Correction Efficiency / Fold: 5 μg oligo

B1: HygE3T/74: 74-base single-stranded DNA oligonucleotide, three phosphorothioate linkages at each end, SEQ ID NO: 8 (nucleic acid)
DNA: dC*dT*dC*dGdTdGdCdTdTdTdCdAdGdCdTdTdCdGdAdTdGdTdAdGdGdAdGdGdGdCdGdTdGdGdAdTdAdCdGdTdCdCdTdGdCdGdGdGdTdAdAdAdTdAdGdCdTdGdCdGdCdCdGdAdTdGdGdTdTdTdC*dT*dA*dC
B1 was tested, and the Correction Efficiency ([1]; 20 mM hydroxyurea 4 h pre-treatment, growth time 20 min) was 4.9 hygromycin resistant colonies, the Correction Efficiency ([1]; 20 mM hydroxyurea 4 h pre-treatment, growth time 40 min) was 9.5 hygromycin resistant colonies and the Correction Efficiency ([1]; 20 mM hydroxyurea 4 h pre-treatment, growth time 60 min) was 7.8 hygromycin resistant colonies. For the same molecule, the Correction Efficiency ([1]; 20 mM hydroxyurea 4 h pre-treatment, growth time 90 min) was 22.4 hygromycin resistant colonies, the Correction Efficiency ([1]; no hydroxyurea, growth time 10 min) was 0.15 hygromycin resistant colonies and the Correction Efficiency ([1]; no hydroxyurea, growth time 20 min) was 2.9 hygromycin resistant colonies. For the same molecule, the Correction Efficiency ([1]; no hydroxyurea, growth time 40 min) was 3.4 hygromycin resistant colonies, the Correction Efficiency ([1]; no hydroxyurea, growth time 60 min) was 2.32 hygromycin resistant colonies and the Correction Efficiency ([1]; no hydroxyurea, growth time 90 min) was 0.56 hygromycin resistant colonies. The “Average colony count on hygromycin plates” value (“Average colony count” for short) ([2]; 1.0 μg oligo) was 5, the “hygromycin-resistant colonies per aureobasidin-resistant colony” value ([2]; 1.0 μg oligo) was 0.03 and the “Average colony count” value ([2]; 2.5 μg oligo) was 99. The “hygromycin-resistant colonies per aureobasidin-resistant colony” value ([2]; 2.5 μg oligo) was 0.61, the “Average colony count” value ([2]; 5.0 μg oligo) was 204 and the “hygromycin-resistant colonies per aureobasidin-resistant colony” value ([2]; 5.0 μg oligo) was 1.26. The “Average colony count” value ([2]; 7.5 μg oligo) was 69, the “hygromycin-resistant colonies per aureobasidin-resistant colony” value ([2]; 7.5 μg oligo) was 0.42 and the “Average colony count” value ([2]; 10.0 μg oligo) was 19. The “hygromycin-resistant colonies per aureobasidin-resistant colony” value ([2]; 10.0 μg oligo) was 0.12, the “Colonies on Hygromycin” value ([2]; Msh2 mutant) was 0 and the “Correction Efficiency” value ([2]; Msh2 mutant) was 0. For the same molecule, the Fold ([2]; Msh2 mutant) was 0x, the “Colonies on Hygromycin” value ([2]; Msh3 mutant) was 0 and the “Correction Efficiency” value ([2]; Msh3 mutant) was 0. The Fold ([2]; Msh3 mutant) was 0x, the “Colonies on Hygromycin” value ([2]; Msh6 mutant) was 1,270 and the “Correction Efficiency” value ([2]; Msh6 mutant) was 2.35. For the same molecule, the Fold ([2]; Msh6 mutant) was 0.55x, the “Colonies on Hygromycin” value ([2]; Pms1 mutant) was 2,280 and the “Correction Efficiency” value ([2]; Pms1 mutant) was 114. The Fold ([2]; Pms1 mutant) was 26.76x, the “Colonies on Hygromycin” value ([2]; Rad1 mutant) was 1,380 and the “Correction Efficiency” value ([2]; Rad1 mutant) was 8.52. The Fold ([2]; Rad1 mutant) was 2.00x, the “Colonies on Hygromycin” value ([2]; Rad2 mutant) was 919 and the “Correction Efficiency” value ([2]; Rad2 mutant) was 3.78. The Fold ([2]; Rad2 mutant) was 0.89x, the “Colonies on Hygromycin” value ([2]; exo1 mutant) was 486 and the “Correction Efficiency” value ([2]; exo1 mutant) was 3.92. The Fold ([2]; exo1 mutant) was 0.92x, the “Colonies on Hygromycin” value ([2]; mre11 mutant) was 12 and the “Correction Efficiency” value ([2]; mre11 mutant) was 0.63. The Fold ([2]; mre11 mutant) was 0.15x, the “Colonies on Hygromycin” value ([2]; rad10 mutant) was 54 and the “Correction Efficiency” value ([2]; rad10 mutant) was 0.15. The Fold ([2]; rad10 mutant) was 0.04x, the “Colonies on Hygromycin” value ([2]; rad23 mutant) was 66 and the “Correction Efficiency” value ([2]; rad23 mutant) was 0.44. The Fold ([2]; rad23 mutant) was 0.10x, the “Colonies on Hygromycin” value ([2]; rad50 mutant) was 336 and the “Correction Efficiency” value ([2]; rad50 mutant) was 2.09. For the same molecule, the Fold ([2]; rad50 mutant) was 0.49x, the “Colonies on Hygromycin” value ([2]; rad51/52 mutant) was 212 and the “Correction Efficiency” value ([2]; rad51/52 mutant) was 5.45. The Fold ([2]; rad51/52 mutant) was 1.28x, the “Colonies on Hygromycin” value ([2]; rad51 mutant) was 104 and the “Correction Efficiency” value ([2]; rad51 mutant) was 0.62. The Fold ([2]; rad51 mutant) was 0.14x, the “Colonies on Hygromycin” value ([2]; rad52 mutant) was 266 and the “Correction Efficiency” value ([2]; rad52 mutant) was 3.29. For the same molecule, the Fold ([2]; rad52 mutant) was 0.77x, the “Colonies on Hygromycin” value ([2]; rad54 mutant) was 2 and the “Correction Efficiency” value ([2]; rad54 mutant) was 0.02. The Fold ([2]; rad54 mutant) was 0x, the “Colonies on Hygromycin” value ([2]; rad55 mutant) was 0 and the “Correction Efficiency” value ([2]; rad55 mutant) was 0. For the same molecule, the Fold ([2]; rad55 mutant) was 0x, the “Colonies on Hygromycin” value ([2]; rad57 mutant) was 984 and the “Correction Efficiency” value ([2]; rad57 mutant) was 17.26. The Fold ([2]; rad57 mutant) was 4.05x, the “Colonies on Hygromycin” value ([2]; rad59 mutant) was 1,198 and the “Correction Efficiency” value ([2]; rad59 mutant) was 3.06. For the same molecule, the Fold ([2]; rad59 mutant) was 0.71x, the “Colonies on Hygromycin” value ([2]; wild type) was 1,218 and the “Correction Efficiency” value ([2]; wild type) was 4.26. The Fold ([2]; wild type) was 1x, the “Colonies on Hygromycin” value ([2]; xrs2 mutant) was 29 and the “Correction Efficiency” value ([2]; xrs2 mutant) was 0.66. For the same molecule, the Fold ([2]; xrs2 mutant) was 0.15x.
